What was measured:
[1] = target: T1, human OX40 on PG-Jurkat-hOX40-NF-kB cells (human, UniProt P43489 29-277); assay: flow cytometry competition against OX40L-mFc on PG-Jurkat-OX40-NF-kB cells; reference antibody KHK4083
T1 construct: whole, on cells; Jurkat cells overexpressing human OX40 that also carry the pGL6-NFkB-luc reporter plasmid; also called TNFRSF4; ACT35
T1 sequence (looked up): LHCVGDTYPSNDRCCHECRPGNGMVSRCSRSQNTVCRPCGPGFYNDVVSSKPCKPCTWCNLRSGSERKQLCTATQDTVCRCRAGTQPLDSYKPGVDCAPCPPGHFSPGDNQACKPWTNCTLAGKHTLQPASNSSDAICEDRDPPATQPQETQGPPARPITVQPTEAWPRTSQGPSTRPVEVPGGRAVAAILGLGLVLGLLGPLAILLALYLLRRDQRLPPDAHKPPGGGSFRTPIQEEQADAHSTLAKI

[2] = target: T1, human OX40 on PG-Jurkat-hOX40-NF-kB …; assay: cell-based or functional assay
[3] = target: T1, human OX40 on PG-Jurkat-hOX40-NF-kB …; assay: flow cytometry competition: antibody titrated against OX40L-mFc (1.5 ug/mL) on PG-Jurkat-OX40-NF-kB cells, anti-mFc APC detection

B1: antibody M-KF (antibody, human IgG1, kappa, V domains shown)
VH: QVQLVESGGGVVQPGESLRLSCAASGFTFSSYGMHWVRQAPGKGLEWVAVIWEDGSNQYYADSVKGRFTISRDNSKNTLYLQMNSLRAEDTAVYYCAKDNQDTSPDVGIDYWGQGTLVTVSS
VL: DIQMTQSPSSLSASVGDRVTITCRASQNISPFLNWYQQKPGKAPKLLIYAAVGLQSGVPSRFSGSGSGTDFTLTISSLQPEDFATYYCQQYTDYPLTFGGGTKVEIKR
notes: Expressed in CHO-BAT-KF cells (alpha-(1,6)-fucosyltransferase knocked out); also called anti-OX40 antibody
fold lower IC50 than antibody KHK4083 [1]: 2.8 fold | IC50 of blocking OX40L-mFc-induced NF-kB luciferase reporter signal (RLU) in PG-Jurkat-OX40-NF-kB cells [2]: 0.095 nM | fold lower IC50 than antibody KHK4083 in the NF-kB luciferase reporter assay [2]: 4.8 fold | IC50 [3]: 0.85 nM
